Numbering of substitutions follows the chain as printed. Entries after “also recorded” stand apart in the source; their conditions may differ. Values belong to the molecule of their own block, whether it stands above or below them.
Experiments:
[1] = target: T1, MKK7 (Mus musculus, UniProt Q8CE90); assay: Phospho-blotting for dual-phosphorylated JNK in COS cells co-transfected with MKK7; assay type: cell-based; settings: antibody to dual-phosphorylated JNK
T1 construct: expressed in transfected cells; host or cells: COS cells
T1 sequence (Q8CE90 1-419 isoform Q8CE90-2): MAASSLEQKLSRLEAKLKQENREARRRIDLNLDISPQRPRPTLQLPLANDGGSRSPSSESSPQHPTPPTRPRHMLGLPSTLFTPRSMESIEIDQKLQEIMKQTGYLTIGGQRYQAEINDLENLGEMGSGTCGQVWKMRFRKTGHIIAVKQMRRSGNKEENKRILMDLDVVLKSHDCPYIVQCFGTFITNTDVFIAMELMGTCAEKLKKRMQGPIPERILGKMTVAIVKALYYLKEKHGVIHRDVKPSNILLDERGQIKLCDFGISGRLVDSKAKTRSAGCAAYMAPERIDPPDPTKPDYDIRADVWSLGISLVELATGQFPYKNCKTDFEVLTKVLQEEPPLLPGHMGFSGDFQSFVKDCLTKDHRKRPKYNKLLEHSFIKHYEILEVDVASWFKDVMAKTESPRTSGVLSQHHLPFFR

[2] = target: T2, TI-JIP (Homo sapiens, UniProt Q9UQF2); assay: Yeast two-hybrid screening / β-galactosidase overlay assay of JNK1 point mutants for interaction with TI-JIP; assay type: cell-based; settings: single point mutants of JNK1, full-length expression confirmed by Western blot
T2 construct: Oligonucleotides encoding TI-JIP were annealed; expressed in transfected cells; host or cells: yeast diploids, RFY 206 (pSH18-34, pGILDA-TI-JIP) mated to PRT 49 (JNK mutants in pJG4-5)

[3] = test system: GST-MKK4(ED); assay: In vitro phosphorylation (activation) of immunoprecipitated JNK by constitutively active MKK4; assay type: biochemical; settings: [32P]-ATP, relative to autophosphorylation
Experimental: FIG. 15a is a representation showing that JNK mutants were not activated by constitutively-active MKK4 (MKK4(ED)) or MKK7. […] JNK proteins were immunoprecipitated from transfected cell lysates, and immunoprecipitates were used as the substrates in in vitro kinase assays with GST-MKK4(ED). Following separation by SDS-PAGE, activation of JNK and mutant proteins was assessed by autoradiography (upper panel) (n=2). Coomassie Blue staining (lower panel) confirmed substrate loading.
FLAG-JNK1 proteins were immunoprecipitated by addition of anti-FLAG M2 (SIGMA) and incubation for 1 h on ice and then addition of Protein G-Sepharose and incubation at 4° C. for 2 h with rotation. Immunocomplexes were washed three times with lysis buffer, then once with reaction buffer (20 mM HEPES, 20 mM MgCl2, 20 mM β-glycerophosphate, 500 μM DTT, 100 μM Na3VO4; pH 7.6). For assays of JNK activity, the washed complexes were resuspended in 40 μL of reaction buffer containing 10 μg GST-c-Jun (1-135), 20 μM ATP and 1 μCi [λ-^32P]ATP and incubated at 30° C. for 30 min. Reactions were stopped by addition of 3× SDS-PAGE Sample Buffer and proteins were separated by SDS-PAGE. JNK activity towards GST-c-Jun (1-135) was visualized by autoradiography and quantitated by Cerenkov counting. For assays of JNK activation, the washed beads were incubated with 30 μL of reaction buffer containing 20 μM ATP, 5 μCi [λ-^32P]ATP and 1 μg of GST-MKK4(ED) at 30° C. for 1 h with occasional mixing. After removal of the supernatant, the beads were washed in 200 μl ice-cold lysis buffer and then heated for 5 min at 100° C. in 15 μL of 3× SDS-PAGE sample buffer, prior to separation by SDS-PAGE. Gels were Coomassie-stained, dried and used for autoradiography. Gel bands corresponding to FLAG-JNK were excised from the gels and their radioactivity quantitated by Cerenkov counting. Where immunoprecipitated GST-MKK7β1 was used to activate JNK, reactions were performed as above, but with 1 μCi [λ-^32P]ATP and incubation at 30° C. for 30 min.

[4] = test system: GST-c-Jun(1-135); assay: In vitro kinase assay of FLAG-immunoprecipitated JNK1 from transfected COS cells towards GST-c-Jun(1-135); assay type: biochemical
Experimental: FIG. 14b is a representation showing a typical autoradiograph (upper panel) illustrating phosphorylation of GST-c-Jun(1-135) by wild-type (WT) JNK and mutants (n=2) for COS cells transfected as described in the legend to FIG. 14a. Transfected cells were incubated without sorbitol or exposed to hyperosmotic shock (0.5 M sorbitol, 30 min) prior to lysis. FLAG-tagged JNK1 and mutants were immunoprecipitated from cell lysates and then assayed for activity towards GST-c-Jun(1-135) using in vitro kinase assays. Coomassie Blue staining (lower panel) confirmed substrate loading.
FIG. 14c is a photographic representation showing a typical autoradiograph (upper panel) illustrating phosphorylation of GST-c-Jun(1-135) by wild-type (WT) JNK and mutants (n=2) for COS cells transfected as described in the legend to FIG. 14a, or co-transfected with a constitutively-active MEKK1 construct (CA-MEKK1). […]
FLAG-JNK1 proteins were immunoprecipitated by addition of anti-FLAG M2 (SIGMA) and incubation for 1 h on ice and then addition of Protein G-Sepharose and incubation at 4° C. for 2 h with rotation. […] JNK activity towards GST-c-Jun (1-135) was visualized by autoradiography and quantitated by Cerenkov counting. […] Gel bands corresponding to FLAG-JNK were excised from the gels and their radioactivity quantitated by Cerenkov counting. […]

B2: Tyr-320-His: single point mutant of human JNK1 (SEQ ID NO: 1) (protein)
chain: MSRSKRDNNFYSVEIGDSTFTVLKRYQNLKPIGSGAQGIVCAAYDAILERNVAIKKLSRPFQNQTHAKRAYRELVLMKCVNHKNIIGLLNVFTPQKSLEEFQDVYIVMELMDANLCQVIQMELDHERMSYLLYQMLCGIKHLHSAGIIHRDLKPSNIVVKSDCTLKILDFGLARTAGTSFMMTPYVVTRYYRAPEVILGMGYKENVDLWSVGCIMGEMVCHKILFPGRDYIDQWNKVIEQLGTPCPEFMKKLQPTVRTYVENRPKYAGYSFEKLFPDVLFPADSEHNKLKASQARDLLSKMLVIDASKRISVDEALQHPHINVWYDPSEAEAPPPKIPDKQLDEREHTIEEWKELIYKEVMDLEERTKNGVIRGQPSPLAQVQQ
modifications: homo sapiens
phosphorylation/activation of JNK by active MKK4 [3]: impaired in their activation

B3: Arg-309-Trp: single point mutant of human JNK1 (SEQ ID NO: 1) (protein)
chain: B2 chain with R309W, H320Y
modifications: homo sapiens
phosphorylation/activation of JNK by active MKK4 [3]: impaired in their activation

Continued, in another order:

phosphorylation/activation of JNK by MKK7 [1]: impaired in their activation
interaction of JNK1 mutant with TI-JIP ([2]; listed as L131→R131): prevent interaction of JNK with TI-JIP
B1: Leu-131-Arg: single point mutant of human JNK1 (SEQ ID NO: 1) (protein)
chain: B2 chain with L131R, H320Y
modifications: homo sapiens
interaction of JNK1 mutant with TI-JIP [2]: incapable of interaction with TI-JIP; also recorded: did not interact with TI-JIP
phosphorylation/activation of JNK by active MKK4 [3]: impaired in their activation

phosphorylation/activation of JNK by MKK7 [1]: strongly phosphorylated by MKK7
B4: wildtype JNK1: FLAG-tagged wild-type human JNK1 (SEQ ID NO: 1) expressed from pCMV-FLAG-JNK1 (protein)
chain: B2 chain with H320Y
modifications: FLAG tag; homo sapiens
increase in c-Jun phosphorylation relative to cells transfected with JNK alone ([4]; COS cells co-transfected with constitutively-active MEKK1 (CA-MEKK1)): 240 fold
activation of c-Jun phosphorylation over corresponding unstimulated cells ([4]; COS cells, hyperosmotic shock 0.5 M sorbitol, 30 min): 5.5 fold
phosphorylation/activation of JNK by active MKK4 [3]: increased the phosphorylation

From patent US20080044815A1, “Genetic Screen for Interaction Interface Mapping” (priority 2003, published 2008)
